According to doi:10.1101/2025.10.03.680245 (bioRxiv, 2025):

B1: MBP-Bud4ΔN-HALO (domain or fragment)
chain: MKPSDYISIWHIQEEEIKSNSPESIANSQFSQQSSITTASTVDSKKDNGSTSFKFKPRIVSRSRIYNPKSRVSSLNYYDNEDYILSNSEWNALDPMRRNTLISKRIQDNIRTQKGHAPLIRPSIMKLNGEDSGFQNHFLEVEQPQEHENIPLSTHLSEQDITTNVGLDEQKLPTNTQDEAEISIREIESAGDITFNRGDLLSLSFDEELGQDFANFLDALDHDSTSFNHGPDDSSSFQRDSSKKSFNSLWESSYELKPPPSIRKQPIAPDVLQKLLESDTKDDADLEKIREERITEPRTGLGIGMLKTPVKDVSIALAASIKGYEASFSDTDSRPEGMNNSDAITLNMFDDFEEDKMTPSTPVRSISPIKRHVSSPFKVVKAGNKQENNEINIKAEEEIEPMTQQETDGLKQDIPPLLAQTKDNVEAKEETITQLEEPQDVEQEFPDMGTLYLSIKAISTLALYGTKSHRATYAIVFDNGENVVQTPWESLPYDGNIRINKEFELPIDFKGKAETSSASSERDSYKKCVITLKCKYEKPRHELVEIVDKVPVGKSFFGKTKYKFEKKYVQKKPKQDEWDYLFAQDGSFARCEIEINEEFLKNVAFNTSHMHYNMINKWSRIADKIHGSKRLYELPRKAPHKVASLDVEACFLERTSAFEQFPKQFSLVNKIVSKYKLQQNIYKEGYLLQDGGDLKGKIENRFFKLHGSQLSGYHEISRKAKIDINLLKVTKVLRNEDIQADNGGQRNFTDWVLFNECFQLVFDDGERITFNAECSNEEKSDWYNKLQEVVELNVFHQPWVKKYCEKLAEEEKTRTTGHNLKQDFN
modifications: HaloTag Alexa-Fluor 660 fluorescent ligand on the HALO tag
B2: Recombinant Cdc11-capped septin octamers (complex)
chain 1: MSGIIDASSALRKRKHLKRGITFTVMIVGQSGSGRSTFINTLCGQQVVDTSTTILLPTDTSTEIDLQLREETVELEDDEGVKIQLNIIDTPGFGDSLDNSPSFEIISDYIRHQYDEILLEESRVRRNPRFKDGRVHCCLYLINPTGHGLKEIDVEFIRQLGSLVNIIPVISKSDSLTRDELKLNKKLIMEDIDRWNLPIYNFPFDEDEISDEDYETNMYLRTLLPFAIIGSNEVYEMGGDVGTIRGRKYPWGILDVEDSSISDFVILRNALLISHLHDLKNYTHEILYERYRTEALSGESVAAESIRPNLTKLNGSSSSSTTTRRNTNPFKQSNNINNDVLNPASDMHGQSTGENNETYMTREEQIRLEEERLKAFEERVQQELLLKRQELLQREKELREIEARLEKEAKIKQEE
chain 2: MSAATATAAPVPPPVGISNLPNQRYKIVNEEGGTFTVMLCGESGLGKTTFINTLFQTVLKRADGQQHRQEPIRKTVEIDITRALLEEKHFELRVNVIDTPGFGDNVNNNKAWQPLVDFIDDQHDSYMRQEQQPYRTKKFDLRVHAVLYFIRPTGHGLKPIDIETMKRLSTRANLIPVIAKADTLTAQELQQFKSRIRQVIEAQEIRIFTPPLDADSKEDAKSGSNPDSAAVEHARQLIEAMPFAIVGSEKKFDNGQGTQVVARKYPWGLVEIENDSHCDFRKLRALLLRTYLLDLISTTQEMHYETYRRLRLEGHENTGEGNEDFTLPAIAPARKLSHNPRYKEEENALKKYFTDQVKAEEQRFRQWEQNIVNERIRLNGDLEEIQGKVKKLEEQVKSLQVKKSHLK
chain 3: MSLKEEQVSIKQDPEQEERQHDQFNDVQIKQESQDHDGVDSQYTNGTQNDDSERFEAAESDVKVEPGLGMGITSSQSEKGQVLPDQPEIKFIRRQINGYVGFANLPKQWHRRSIKNGFSFNLLCVGPDGIGKTTLMKTLFNNDDIEANLVKDYEEELANDQEEEEGQGEGHENQSQEQRHKVKIKSYESVIEENGVKLNLNVIDTEGFGDFLNNDQKSWDPIIKEIDSRFDQYLDAENKINRHSINDKRIHACLYFIEPTGHYLKPLDLKFMQSVYEKCNLIPVIAKSDILTDEEILSFKKTIMNQLIQSNIELFKPPIYSNDDAENSHLSERLFSSLPYAVIGSNDIVENYSGNQVRGRSYPWGVIEVDNDNHSDFNLLKNLLIKQFMEELKERTSKILYENYRSSKLAKLGIKQDNSVFKEFDPISKQQEEKTLHEAKLAKLEIEMKTVFQQKVSEKEKKLQKSETELFARHKEMKEKLTKQLKALEDKKKQLELSINSASPNVNHSPVPTKKKGFLR
chain 4: MDPLSSVQPASYVGFDTITNQIEHRLLKKGFQFNIMVVGQSGLGKSTLINTLFASHLIDSATGDDISALPVTKTTEMKISTHTLVEDRVRLNINVIDTPGFGDFIDNSKAWEPIVKYIKEQHSQYLRKELTAQRERFITDTRVHAILYFLQPNGKELSRLDVEALKRLTEIANVIPVIGKSDTLTLDERTEFRELIQNEFEKYNFKIYPYDSEELTDEELELNRSVRSIIPFAVVGSENEIEINGETFRGRKTRWSAINVEDINQCDFVYLREFLIRTHLQDLIETTSYIHYEGFRARQLIALKENANSRSSAHMSSNAIQR

Columns and labels:
[1] = target: GFP-tagged Cdc11-capped recombinant septin octamers (budding yeast (S. cerevisiae), UniProt P32458;P32468;P32457;P25342); experiment: fluorescence microscopy of purified proteins in solution
[2] = target: the molecule itself; experiment: negative-stain transmission electron microscopy

Binder	binding result [1]	binding result [2]
B1	binds	
B2		binds
